Laboratory results as given in PMC4960622, “Crystal structures of RidA, an important enzyme for the prevention of toxic side products” (Scientific Reports, 2016).

What was measured:
[1] = molecular target: the molecule itself; experiment: SEC; 0.5 mg of RidA WT and mutants loaded separately onto a Superdex-75 size-exclusion column; protein standards as size reference
[2] = molecular target: the molecule itself; experiment: crystal structure; apo form; space group H3, one monomer per asymmetric unit, trimer by the crystallographic 3-fold axis; sitting drop, 18% PEG 3350, 0.1 M MES pH 6.0, 25 °C

B1: Arabidopsis thaliana RidA, construct starting from S68 (AtRidA-S68), wild type (enzyme, UniProt Q94JQ4 68-187, looked up)
chain: STEKAPAALGPYSQAIKANNLVFLSGVLGLIPETGKFVSESVEDQTEQVLKNMGEILKASGADYSSVVKTTIMLADLADFKTVNEIYAKYFPAPSPARSTYQVAALPLNAKIEIECIATL
notes: Reactive Intermediate Deaminase A (RidA), Arabidopsis thaliana, GenBank AY060547.1, residues S68-L187 (without the predicted chloroplast transit peptide); Residues S80-L187 are resolved in the crystal structures; also called RidA WT; apo-AtRidA; source: E. coli BL21 (DE3), purified (Ni-NTA, PreScission cleavage, Histrap); not shown: His6, N-terminal, cleaved
In the case of B1, the “stoichiometry N” value [1] is reported as ~3 and the “stoichiometry N” value [2] is reported as 3.

B2: AtRidA-S68 S166A (enzyme, Arabidopsis thaliana, UniProt Q94JQ4 68-187, looked up)
chain: STEKAPAALGPYSQAIKANNLVFLSGVLGLIPETGKFVSESVEDQTEQVLKNMGEILKASGADYSSVVKTTIMLADLADFKTVNEIYAKYFPAPSPARATYQVAALPLNAKIEIECIATL
notes: Reactive Intermediate Deaminase A (RidA), Arabidopsis thaliana, GenBank AY060547.1, residues S68-L187, made by QuikChange on the RidA-S68/pET28a(+) plasmid; The purification of the mutants is not described separately; probably as for the wild type (tag cleaved); also called RidA-S166A; source: E. coli BL21 (DE3), purified
B2: binds [1].

B3: AtRidA-S68 S92A (enzyme, Arabidopsis thaliana, UniProt Q94JQ4 68-187, looked up)
chain: STEKAPAALGPYSQAIKANNLVFLAGVLGLIPETGKFVSESVEDQTEQVLKNMGEILKASGADYSSVVKTTIMLADLADFKTVNEIYAKYFPAPSPARSTYQVAALPLNAKIEIECIATL
notes: Reactive Intermediate Deaminase A (RidA), Arabidopsis thaliana, GenBank AY060547.1, residues S68-L187, made by QuikChange on the RidA-S68/pET28a(+) plasmid; The purification of the mutants is not described separately; probably as for the wild type (tag cleaved); also called RidA-S92A; source: E. coli BL21 (DE3), purified
B3: binds [1].

B4: AtRidA-S68 S80A (enzyme, Arabidopsis thaliana, UniProt Q94JQ4 68-187, looked up)
chain: STEKAPAALGPYAQAIKANNLVFLSGVLGLIPETGKFVSESVEDQTEQVLKNMGEILKASGADYSSVVKTTIMLADLADFKTVNEIYAKYFPAPSPARSTYQVAALPLNAKIEIECIATL
notes: Reactive Intermediate Deaminase A (RidA), Arabidopsis thaliana, GenBank AY060547.1, residues S68-L187, made by QuikChange on the RidA-S68/pET28a(+) plasmid; The purification of the mutants is not described separately; probably as for the wild type (tag cleaved); also called RidA-S80A; source: E. coli BL21 (DE3), purified
B4: binds [1].

B5: AtRidA-S68 E182A (enzyme, Arabidopsis thaliana, UniProt Q94JQ4 68-187, looked up)
chain: STEKAPAALGPYSQAIKANNLVFLSGVLGLIPETGKFVSESVEDQTEQVLKNMGEILKASGADYSSVVKTTIMLADLADFKTVNEIYAKYFPAPSPARSTYQVAALPLNAKIEIACIATL
notes: Reactive Intermediate Deaminase A (RidA), Arabidopsis thaliana, GenBank AY060547.1, residues S68-L187, made by QuikChange on the RidA-S68/pET28a(+) plasmid; The purification of the mutants is not described separately; probably as for the wild type (tag cleaved); also called RidA-E182A; source: E. coli BL21 (DE3), purified
B5: binds [1].

B6: AtRidA-S68 K136R (enzyme, Arabidopsis thaliana, UniProt Q94JQ4 68-187, looked up)
chain: STEKAPAALGPYSQAIKANNLVFLSGVLGLIPETGKFVSESVEDQTEQVLKNMGEILKASGADYSSVVRTTIMLADLADFKTVNEIYAKYFPAPSPARSTYQVAALPLNAKIEIECIATL
notes: Reactive Intermediate Deaminase A (RidA), Arabidopsis thaliana, GenBank AY060547.1, residues S68-L187, made by QuikChange on the RidA-S68/pET28a(+) plasmid; The purification of the mutants is not described separately; probably as for the wild type (tag cleaved); also called RidA-K136R; source: E. coli BL21 (DE3), purified
B6: binds [1].
